Assay results: patent publication US20050142135A1, “Agents and methods for modulating interactions between gonadotropin hormones and receptors” (University of Kentucky Research Foundation, priority 2003, published 2005)
Blank lines part the entries; values can stand above or below the substance they belong to. *1 amine or outer side, *2 acyl side, *3 side chain or, on linkers, in order; H or OH if unused. [ ]: non-standard residue; d: D form. The star is where a group is joined. ABG = 4-azidobenzoyl glycine, attached via its N-hydroxysuccinimide ester, [N-]=[N+]=Nc1ccc(C(=O)NCC(=O)*)cc1; Tyr(125I) = radioiodinated (125I) tyrosine, O=C([C@H](Cc1ccc(O[*:3])c([125I])c1)N[*:1])[*:2]

Tests used:
hCG = target: T1, hCG (Homo sapiens, UniProt P01215+P0DN86); test: Photoaffinity labeling of hCG with ABG-^125I-LHR^exo3; type: binding; details: for inhibition of photoaffinity labeling of hCG by ABG-^125I-LHR^exo3: 4 mM of nonlabeled peptide
T1 construct: purchased National Hormone and Pituitary Program
Experimental: A peptide mimic corresponding to the LHR exoloop 3 sequence of K^573 […]^583 (LHR^exo3) was synthesized, to which a Tyr residue was attached to the C-terminus for radioiodination. The N-terminus of the peptide was acetylated and the C-terminus amidated. NHS-ABG was synthesized as previously described and freshly dissolved in dimethyl sulfoxide to a concentration of 50 mM. The reagent was diluted in 0.1 M sodium phosphate (pH 7.5) to a concentration of 20 mM. The reagent solution was immediately used to derivatize receptor peptides. In the dark, […] of NHS-ABG was added to […] of receptor peptides in […] of 0.1 M sodium phosphate (pH 7.5), and the mixture was incubated for 30 minutes at 25° C. […] After 20 seconds, 7 μl of sodium metabisulfite (2.5 mg/ml) in 10 mM Na2 HPO4, pH 7.4, was introduced to terminate radioiodination. Derivatized and radioiodinated ABG-^exo3 I-LHR^exo3 solution was mixed with 60 μl of 16% sucrose solution in PBS and fractionated on Sephadex Superfine G-10 column (0.6×15 cm) using PBS.
(§1) The mixtures were incubated at 37° C. for 90 minutes in the dark, irradiated with Mineralight R-52 UV lamp for 3 minutes as previously described, and solubilized in 2% SDS, 100 mM dithiothreitol and 8 M urea. The samples were electrophoresed on 8-12% polyacrylamide gradient gels. Gels were dried on filter paper and exposed to an imaging screen overnight, which was scanned on a phosphoimager. Exoloop 3 was modeled.

human LH = target: T2, human LH (Homo sapiens, UniProt P01215+P01229); test: Photoaffinity labeling of LH with ABG-^125I-LHR^exo3; type: binding; details: increasing concentrations of LH
T2 construct: purchased National Hormone and Pituitary Program
Experimental: The samples were processed.
as §1

[1] = tested on: phospholipase A, phospholipase C, phospholipase D and urokinase; test: Labeling specificity of ABG-^125I-LHR^exo3 on other proteins; type: binding
Experimental: as §1

FSH [2] = target: T3, FSH (Homo sapiens, UniProt P01215+P01225); test: Photoaffinity labeling of FSH with ^125I-FSHR^9-40F13Bpa; type: binding; details: increasing concentrations of nonradioactive peptide
T3 construct: purchased National Hormone and Pituitary Program
Experimental: In the dark, 30 μg of receptor peptides in 40 μl of 0.1 M sodium phosphate (pH 7.5). The mixture was incubated for 30 minutes at 25° C. […] After 20 seconds, 7 μl of sodium metabisulfite (2.5 mg/ml) in 10 mM Na2HPO4, pH 7.4, was introduced to terminate radioiodination.
as §1, with “with a” for “with”, “minutes,” for “minutes as previously described,”, “phosphoimager (Molecular Dynamics).” for “phosphoimager. Exoloop 3 was modeled.”
The FSH α and β subunits co-migrate on SDS-PAGE. To separate them on the gel FSH was deglycosylated with PNGase F and after it was photoaffinity labeled. Enzymatic cleavage was done by incubation of the labeled FSH complex with 20 or 50 units of PNGase F (New England BioLabs, Inc., MA) in 40 μl for 18 hours at 37° C. The samples were solubilized in SDS under the reducing condition and electrophoresed on 15% gel containing 9 M urea.

FSH [3] = target: T3, FSH; test: Photoaffinity labeling of FSH with exoloop 3 peptide (ABG-^125I-FSHR^exo3); type: binding; details: increasing concentrations of unlabeled FSHR peptides
Experimental: A peptide mimic corresponding to the exoloop 3 sequence of K^580 […]^590 (FSHR exo3) (SEQ ID NO: 3) was synthesized, to which a Tyr residue was attached to the C-terminus for radioiodination. The N-terminus of the peptide was acetylated and the C-terminus amidated. NHS-ABG was synthesized as previously described and freshly dissolved in dimethyl sulfoxide to a concentration of 50 mM and NHS-ABG in 0.1 M sodium phosphate (pH 7.5) to a concentration of 20 mM. These reagent solutions were immediately used to derivatize receptor peptides. In the dark, 10 μl of NHS-ABG was added to […] of receptor peptides in 40 μl of 0.1 M sodium phosphate (pH 7.5). The mixture was incubated with NHS-ABG for 30 minutes at 25° C. […] After 20 sec, 7 μl of sodium metabisulfite (2.5 mg/ml) in 10 mM Na2 HPO4, pH 7.4, was introduced to terminate radioiodination.
Competitive inhibition experiments were carried out for the photoaffinity labeling experiments. 10 μl of PBS was introduced to each tube and the mixture was incubated with 10 μl of increasing concentrations of nonradioactive receptor peptides. The mixtures were incubated at 37° C. for 90 minutes in the dark, irradiated with Mineralight R-52 UV lamp for 3 minutes as previously described, and solubilized in 2% SDS, 100 mM dithiothreitol and 8 M urea. The samples were electrophoresed on 8-12% polyacrylamide gradient gels. […]

FSHR = test: Inhibition of ^125I-FSH binding to the receptor on intact cells by exoloop 3 peptide; parameters: species or system human
Experimental: The FSH a and b subunits separated in the lower band and upper band, respectively.
Human FSH (the National Hormone and Pituitary Program) was radioiodinated as previously described for radioiodination of hCG. […] The Kd values were determined by Scatchard plots. Truncated exodomain was solubilized in Nonidet P-40 and assayed for hormone binding as described previously. For intracellular cAMP assay, cells were washed twice with Dulbecco's modified Eagle's media and incubated in the media containing isobutylmethylxanthine (0.1 mg/ml) for 15 minutes. Increasing concentrations of FSH were then added and the incubation was continued for 45 minutes at 37° C. After removing the media, the cells were rinsed once with fresh media without isobutylmethylxanthine, lysed in 70% ethanol, freeze-thawed in liquid nitrogen, and scraped. […] Exoloop 3 of FSHR was modeled based on the crystal structure of rhodopsin as a template.

LHR = target: T4, LHR (Homo sapiens, UniProt P22888); test: Inhibition of ^125I-hCG binding to cells stably expressing LHR; details: increasing concentrations of nonradioactive competitor
T4 construct: expressed in transfected cells
Experimental: The cells were washed and bound radioactivity was measured.
The Kd values were determined by Scatchard plots. For intracellular cAMP assay, cells were washed twice with Dulbecco's modified Eagle's media and incubated in the media containing isobutylmethylxanthine (0.1 mg/ml) for 15 minutes. Increasing concentrations of hormone were then added and the incubation was continued for 45 minutes at 37° C. After removing the media, the cells were rinsed once with fresh media without isobutylmethylxanthine, lysed in 70% ethanol, freeze-thawed in liquid nitrogen, and scraped.

human LHR = test: Inositol phosphate assay, LHR exoloop 3 mutants in HEK 293 cells, hCG stimulated; type: cell-based; details: NS = not significant
Experimental: Stable cells were plated in 12 well plates and grown in inositol free DMEM (Atlanta Biologicals) supplemented with 8% heat-inactivated horse serum and […] [^3H]inositol (NEN) for 48 hours to 40-50% confluency. After removing the medium, the cells were incubated in 1 ml of fresh wash buffer consisting of DMEM w/o inositol and 15 mM HEPES (pH 7.3) for 1 hour at 37° C. This medium was removed and 0.3 ml wash buffer containing 20 mM LiCl was added and incubated for 15 minutes at 37° C. After the cells were stimulated with increasing concentrations of hormone for 30 minutes at 37° C., the incubation was terminated by the removal of medium and the addition of 0.25 ml of 0.6 N HCl to each well. The cells were scraped, transferred into microcentrifuge tubes and the wells were again washed with 0.25 ml of 0.6 N HCl. The combined washes were treated with 0.9 ml of a mixture of chloroform:methanol (2:1), vortexed and centrifuged at 1000×g for 5 minutes at room temperature. The top aqueous layer, which was free of phospholipids, was removed and the remaining chloroform layer treated with 0.2 ml of methanol:water (1:1), vortexed and centrifuged, as above. This aqueous layer was added to the previous aqueous layer and the samples dried in a vacuum concentrator. […] Aliquots of 200 μl were counted for radioactivity in 1.5 ml of Ultima AF scintillation fluid (Packard). […]

T1 sequence (P01215 25-116, other chains not shown): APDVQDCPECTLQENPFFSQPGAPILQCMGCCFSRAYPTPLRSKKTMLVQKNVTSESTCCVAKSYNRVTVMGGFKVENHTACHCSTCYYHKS
T3 sequence (P01215 25-116): as the sequence (P01215 25-116, other chains not shown) above
T3 sequence (P01225 19-129): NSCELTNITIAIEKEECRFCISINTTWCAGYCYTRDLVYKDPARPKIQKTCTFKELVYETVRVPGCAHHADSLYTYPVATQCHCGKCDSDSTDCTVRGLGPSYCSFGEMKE
Sequence of human LHR (P22888 27-363 limits assumed): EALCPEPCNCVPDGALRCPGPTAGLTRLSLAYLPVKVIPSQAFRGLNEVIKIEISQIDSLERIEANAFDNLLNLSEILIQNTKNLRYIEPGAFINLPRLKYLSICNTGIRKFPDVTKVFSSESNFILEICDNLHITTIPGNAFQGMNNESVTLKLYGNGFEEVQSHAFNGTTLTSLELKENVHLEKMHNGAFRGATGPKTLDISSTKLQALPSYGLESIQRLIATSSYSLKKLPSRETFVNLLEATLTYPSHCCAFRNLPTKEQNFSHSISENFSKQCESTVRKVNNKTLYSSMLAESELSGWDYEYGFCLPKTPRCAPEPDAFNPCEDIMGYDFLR
T4 sequence (P22888 27-699): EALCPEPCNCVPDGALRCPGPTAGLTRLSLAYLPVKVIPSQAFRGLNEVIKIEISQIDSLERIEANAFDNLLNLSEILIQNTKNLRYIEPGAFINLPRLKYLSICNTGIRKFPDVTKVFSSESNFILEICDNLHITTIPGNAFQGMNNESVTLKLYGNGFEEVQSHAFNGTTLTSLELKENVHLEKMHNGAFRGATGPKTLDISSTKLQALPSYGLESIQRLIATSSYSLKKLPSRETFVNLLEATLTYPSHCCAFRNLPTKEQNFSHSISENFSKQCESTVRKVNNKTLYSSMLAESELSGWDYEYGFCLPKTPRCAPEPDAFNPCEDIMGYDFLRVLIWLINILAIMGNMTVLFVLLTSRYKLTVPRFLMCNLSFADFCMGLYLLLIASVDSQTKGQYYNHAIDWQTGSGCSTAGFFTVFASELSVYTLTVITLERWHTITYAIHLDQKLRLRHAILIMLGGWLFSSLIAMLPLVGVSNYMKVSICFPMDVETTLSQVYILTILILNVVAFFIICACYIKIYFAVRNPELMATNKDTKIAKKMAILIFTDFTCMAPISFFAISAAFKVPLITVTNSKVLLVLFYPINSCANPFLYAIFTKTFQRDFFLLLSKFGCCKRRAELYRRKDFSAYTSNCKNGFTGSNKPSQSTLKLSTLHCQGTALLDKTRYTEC
T2 sequence (P01215 25-116): as the sequence (P01215 25-116, other chains not shown) above
T2 sequence (P01229 21-141): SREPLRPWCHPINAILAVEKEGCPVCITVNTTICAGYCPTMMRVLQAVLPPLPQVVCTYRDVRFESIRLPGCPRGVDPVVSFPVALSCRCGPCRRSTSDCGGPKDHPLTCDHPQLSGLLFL
Sequence of FSHR (P23945 18-695): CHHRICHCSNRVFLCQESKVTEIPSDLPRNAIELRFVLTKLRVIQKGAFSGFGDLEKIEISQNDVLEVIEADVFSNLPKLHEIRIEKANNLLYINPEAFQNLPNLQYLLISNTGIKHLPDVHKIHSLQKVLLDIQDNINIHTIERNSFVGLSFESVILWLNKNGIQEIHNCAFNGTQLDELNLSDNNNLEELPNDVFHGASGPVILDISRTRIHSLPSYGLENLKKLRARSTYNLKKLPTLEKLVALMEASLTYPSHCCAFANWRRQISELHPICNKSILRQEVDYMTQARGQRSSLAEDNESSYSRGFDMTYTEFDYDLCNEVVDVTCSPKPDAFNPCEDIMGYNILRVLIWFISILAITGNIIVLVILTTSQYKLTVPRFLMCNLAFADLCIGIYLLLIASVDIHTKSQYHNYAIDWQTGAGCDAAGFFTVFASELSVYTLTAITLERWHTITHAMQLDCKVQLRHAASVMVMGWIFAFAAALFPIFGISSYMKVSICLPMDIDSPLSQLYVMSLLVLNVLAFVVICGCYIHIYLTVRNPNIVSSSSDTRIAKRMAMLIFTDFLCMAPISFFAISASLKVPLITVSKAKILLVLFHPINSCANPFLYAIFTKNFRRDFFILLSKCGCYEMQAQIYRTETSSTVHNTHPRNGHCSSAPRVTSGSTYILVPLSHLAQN

hCG concentration at which the maximum labeling was reached (hCG; both hormone subunits, constant amount of probe): 50 nM
photoaffinity labeling of denatured hCG (hCG; hCG boiled in 8 M urea): not labeled at all
photoaffinity labeling of phospholipase A, phospholipase C, phospholipase D and urokinase [1]: not photoaffinity labeled
Substance: ABG-^125I-LHR^exo3: LHR exoloop 3 peptide derivatized with N-hydroxysuccinimide of 4-azidobenzoyl glycine and radio-iodinated (Ac-KVPLITVTNSK(ABG)[Tyr(125I)]-NH2; also: derivatized with N-hydroxysuccinimide ester of 4-azidobenzoyl glycine, radio-iodinated (125I))
labeled hCG subunits (hCG): the a band labeled slightly more than the β band
photoaffinity labeling of LH subunits (human LH): Both of the α and β subunits of LH were labeled

Substance: FSHR^9-40: peptide mimic of FSH receptor sequence S9-K40, SNRVFLCQESKVTEIPSDLPRNAIELRFVLTK (SEQ ID NO: 2) (Ac-YSNRVFLCQESKVTEIPSDLPRNAIELRFVLTK-NH2; not fully specified (some residues); printed as S9NRVFLCQESKVTEIPSDLPRNAIELRFVLTK40)
inhibition of photoaffinity labeling of FSH by ^125I-FSHR^9-40F13Bpa (FSH [2]): inhibited the photoaffinity labeling in a dose dependent manner
inhibition of photoaffinity labeling of FSH by ^125I-ABG-FSHR^exo3 (FSH [3]): inhibited the photoaffinity labeling in a dose dependent manner

Substance: FSHR^exo3: peptide mimic of FSHR exoloop 3, KVPLITVSKAK (SEQ ID NO: 3), C-terminal Tyr, N-acetylated, C-amidated (Ac-KVPLITVSKAKY-NH2)
inhibition of photoaffinity labeling of FSH by ^125I-ABG-FSHR^exo3 (FSH [3]): inhibited the photoaffinity labeling in a dose dependent manner
inhibition of ^125I-FSH binding to the receptor on intact cells (FSHR): inhibited ^125I-FSH binding to the receptor on intact cells in a dose dependent manner

inhibition of photoaffinity labeling of hCG by ABG-^125I-LHR^exo3 (hCG): failed to inhibit the labeling
Substance: LHR^18-36: N-terminal peptide of the LHR exodomain (CPGPTAGLTRLSLAYLPVK)

inhibition of photoaffinity labeling of hCG by ABG-^125I-LHR^exo3 (hCG): blocked the labeling
inhibition of ^125I-hCG binding to LHR (LHR): inhibited ^125I-hCG binding to LHR
Substance: LHR^exo3: peptide mimic of LHR exoloop 3, KVPLITVTNSK, C-terminal Tyr, N-acetylated, C-amidated (Ac-KVPLITVTNSKY-NH2)

Substance: Wildtype: wild type human LH receptor expressed in HEK 293 cells (Table II)
IP1 (cpm) (human LHR): 13,780-w cpm
